This passage reports Kd results from publication PMC5497220 (2017).

Where no end group is shown, it is not given here.

Usually Kd stands for a measure of binding affinity in units of concentration. The low end stands for a tighter complex, the high end for a looser complex.

This experiment addresses T1, Histone H3 (4-10) K9ac peptide 4-10 (Homo sapiens, UniProt P68431, not fully specified (residue 7)).
T1 chain: TKQTARK
Briefly: ITC. A general note: ITC needs no label: the signal is the heat of the interaction.

B1: ENL (protein)
chain: MDNQCTVQVRLELGHRAQLRKKPTTEGFTHDWMVFVRGPEQCDIQHFVEKVVFWLHDSFPKPRRVCKEPPYKVEESGYAGFIMPIEVHFKNKEEPRKVCFTYDLFLNLEGNPPVNHLRCEKLTFNNPTTEFRYKLLRAGGVMVMPEGADTVSRPSPDYPMLPTIPLSAFSDPKKTKPSHGSKDANKESSKTSKPHKVTKEHRERPRKDSESKSSSKELEREQAKSSKDTSRKLGEGRLPKEEKAPPPKAAFKEPKMALKETKLESTSPKGGPPPPPPPPPRASSKRPATADSPKPSAKKQKKSSSKGSRSAPGTSPRTSSSSSFSDKKPAKDKSSTRGEKVKAESEPREAKKALEVEESNSEDEASFKSESAQSSPSNSSSSSDSSSDSDFEPSQNHSQGPLRSMVEDLQSEESDEDDSSSGEEAAGKTNPGRDSRLSFSDSESDNSADSSLPSREPPPPQKPPPPNSKVSGRRSPESCSKPEKILKKGTYDKAYTDELVELHRRLMALRERNVLQQIVNLIEETGHFNVTNTTFDFDLFSLDETTVRKLQSCLEAVAT
Take B1: the Kd was determined as 30.1 µM.
